{
  "source": "patent US20150044137A1",
  "about": "(UNITED STATES OF AMERICA AS REPRESENTED BY THE SECRETARY …, published 2015)",
  "binders": {"B1": {"name": "VRC16b (antibody, V domains shown)", "VH": "EVQLSESGGGVVKPGGSLRLSCEASGFTFSNYAMSWVRQAPGKGLEWVSVTGGHGTYGYYGEFVKGRFTISRDHSMDTVYLQMNRLRVEDTAVYYCVRTPYYHESSGYYYRAGNYFDFWGKGTLVIVSA", "VL": "DIQMTQSPSSLSASVGDRVTITCRASQDIANYLNWYQKKSGTPPKLLIFAATNLHRGVSPRFSGSGSGTHFSLTITNVQYEDFANYFCQHSFGTIGTFGQGTWVDIR"}, "B2": {"name": "VRC16c (antibody, V domains shown)", "VH": "EVQLSESGGGFVKPGGSLRLSCEASGFTFNNYAMSWVRQAPGKGLEWVSVTSAHGGSAYYGEFVKGRFTMSRDHFIDTVYLEMNRLTVEDTAVYYCVRVTFYHEGSGYYYRAGNYFDSWGKGTRVVVSA", "VL": "B1 VL with V15I, S63T, S67H, Y80H, A84G, N85H, H90Q, G93A, I95V, T97S"}, "B3": {"name": "VRC16d (antibody, V domains shown)", "VH": "B2 VH with R85G", "VL": "B1 VL with V15I, S63T, S67H, Y80H, A84G, H90Q, G93A, I95V, T97S"}, "B4": {"name": "VRC14b (antibody, V domains shown)", "VH": "QVQLVQSGTALKSPGSSAKLSCTVLGDEFGTYFISWIRQAPGQGLEWVGGIVPHSQLQSSAQKFHGRITISAGAGVTPPVVSLQLTNLTFEDTGTYFCARERGRHRDPKTGDALRGRYFDFWGRGTGVRVST", "VL": "QSALTQPAFVSGSPGQSITLSCTLGTEDVSWYQQRPNSAPRLIIFDVKKRPSDVSDRFSGHNSDTAAFLTISELRPEDEAEYFCTSWPYRFGRGTKVDVA"}, "B5": {"name": "VRC14 (antibody, V domains shown)", "VH": "B4 VH with T69I, V128L", "VL": "QSALTQPAFVSGSPGQSITLSCSLGTADVSWYQQRPNSAPRLIIFDVKKRPSDVSDRFSGHNSDTAAFVTISELRPEDEAEYFCTSWPYRFGPGTKVDVAR", "notes": "also called mAb VRC14"}, "B6": {"name": "VRC14c (antibody, V domains shown)", "VH": "B4 VH with T69I, D112K, L114P, R129T, T132A", "VL": "B4 VL with E81D, G92D"}, "B7": {"name": "VRC13 (antibody, V domains shown)", "VH": "QVQLVQPGTAMKSLGSSLTITCRVSGDDLGSFHFGTYFMIWVRQAPGQGLEYMGGILPSTKTPTYAHKFRGRVSISAPGVPPVLSLALTNLTYDDTATYFCARERGRHFEPKNRDNLEGKFFDLWGRGTFVRVSP", "VL": "QSALTQPASVSGSPGQSINISCAGRSDRVSWYQQRPNGVPKLLMFDVYRRPSGVSDRFSGSHSGDTAFLTISGLQTEDEADYYCTSHPYAFGAGTKVNVLR"}},
  "key": {"[1]": {"biological_target": "T1, Yu2 gp120 HIV-1 Env protein (HIV-1 (strain Yu2), UniProt P35961 32-498)", "T1 construct": "domain: gp120", "assay": "ELISA-type plate assay (OD450), mAb titrated on Yu2 gp120 WT"}, "RSC3 probe [2]": {"biological_target": "RSC3 probe", "assay": "ELISA-type plate assay (OD450), mAb titrated on RSC3 [panel VRC14b]"}, "RSC3 probe [3]": {"biological_target": "RSC3 probe", "assay": "ELISA-type plate assay (OD450), mAb titrated on RSC3 [panel VRC14]"}, "RSC3 probe [4]": {"biological_target": "RSC3 probe", "assay": "ELISA-type plate assay (OD450), mAb titrated on RSC3 [panel VRC14c]"}, "[5]": {"biological_target": "T1, Yu2 gp120 HIV-1 Env protein"}},
  "note": "Substitutions are numbered along the chain they refer to.",
  "data": [
    {"binder": "B1", "values": [
      {"measurement": "EC50 (read off the curve)", "setting": "[1]", "result": "~20", "unit": "ng/mL"}
    ]},
    {"binder": "B2", "values": [
      {"measurement": "EC50 (read off the curve)", "setting": "[1]", "result": "~5", "unit": "ng/mL"}
    ]},
    {"binder": "B3", "values": [
      {"measurement": "EC50 (read off the curve)", "setting": "[1]", "result": "~5", "unit": "ng/mL"}
    ]},
    {"binder": "B4", "values": [
      {"measurement": "EC50 (read off the curve)", "setting": "RSC3 probe [2]", "result": "~7", "unit": "ng/mL"}
    ]},
    {"binder": "B5", "values": [
      {"measurement": "EC50 (read off the curve)", "setting": "RSC3 probe [3]", "result": "~6", "unit": "ng/mL"}
    ]},
    {"binder": "B6", "values": [
      {"measurement": "EC50 (read off the curve)", "setting": "RSC3 probe [4]", "result": "~20", "unit": "ng/mL"}
    ]},
    {"binder": "B7", "values": [
      {"measurement": "IC50 (read off the curve)", "setting": "[5]", "result": "~400", "unit": "ng/mL"}
    ]}
  ]
}
